Laboratory results reported in patent US20220356213A1 (MAX PLANCK GESELLSCHAFT ZUR F RDERUNG DER WISSENSCHAFTEN E V, published 2022).

Molecular target: T1, TMH-FLAG-(L1)-iLID
T1 chain: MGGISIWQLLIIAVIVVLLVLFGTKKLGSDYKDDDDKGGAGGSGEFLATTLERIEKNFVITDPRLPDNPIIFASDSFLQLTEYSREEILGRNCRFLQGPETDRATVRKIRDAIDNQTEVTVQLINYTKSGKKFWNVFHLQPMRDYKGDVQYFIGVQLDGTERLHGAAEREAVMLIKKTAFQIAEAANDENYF
Assay: cell-based or functional assay

B1: SspB_Nano-SctQ (other)
chain: MSLRSGAGSSPKRPKLLREYYDWLVDNSFTPYLVVDATYLGVNVPVEYVKDGQIVLNLSASATGNLQLTNDFIQFNARFKGVSRELYIPMGAALAIYARENGDGVMFEPEEIYDELNIGGAGELGGSGGSGGSLLTLPQAKLSELSLRQRLSHYRQNYLWEEGKLELTVSEPPSSLNCILQLQWKGTHFTLYCFGDDLANWLTPDLLGAPFSTLPKELQLALLERQTVFLPKLVCNDIATASLSVTQPLLSLRLSRDNAHISFWLTSAEALFALLPARPNSERIPLPILLSLRWHKVYLTLDEVDSLRLGDVLLAPEGSGPNSPVLAYVGENPWGYFQLQSNKLEFIGMSHESDELNPKPLTDLNQLPVQVSFEVGRQILDWHTLTSLEPGSLIDLTTPVDGEVRLLANGRLLGHGRLVEIQGRLGVRIERLTEVTIS
- L/D ratio of export of heterologous cargo YopE1-53-NanoLuc-FLAG, LITESEC-supp2: < 0.02
- L/D ratio of export of heterologous cargo, LITESEC-supp2: 0.01
- export of heterologous cargo, LITESEC-supp2, dark: 205 % WT secretion
- export of heterologous cargo, LITESEC-supp2, light: 2 % WT secretion
- light/dark secretion ratio (L/D ratio), LITESEC-supp1, native T3SS substrates, in vitro secretion assay: 0.28
- light/dark secretion ratio (L/D ratio), LITESEC-supp2 (anchor from pACYC184), native T3SS substrates: 0.26
